Results on four molecules are retold here after paper PMC2923778 (Journal of Molecular Biology, 2010).

As usually defined, the Kd is the equilibrium constant for the complex coming apart.

In one assay the target is T1, hSPSB1 (Homo sapiens, UniProt Q96BD6).
T1 construct: hexahistidine (N, cleaved yes); made in house; host or cells: E. coli BL21(DE3)-R3-pRARE2
T1 sequence (Q96BD6 24-233): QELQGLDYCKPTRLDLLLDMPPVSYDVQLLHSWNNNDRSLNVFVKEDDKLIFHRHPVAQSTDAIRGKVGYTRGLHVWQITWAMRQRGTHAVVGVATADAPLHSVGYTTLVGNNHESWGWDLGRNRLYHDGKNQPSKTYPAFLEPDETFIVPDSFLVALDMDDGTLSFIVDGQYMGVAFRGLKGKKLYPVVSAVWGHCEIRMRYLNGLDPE
The assay can be described thus: ITC of peptides with hSPSB1. The conditions noted are these: 20 °C, 50 mM Hepes pH 7.4, 150 mM NaCl, 1 mM DTT, 100 μM peptide into 10 μM protein, ± error of curve fit, single binding site model. The protocol:
Human SPSB constructs lacking the SOCS box region [hSPSB1(24–233), SWISS-PROT accession number Q96BD6; hSPSB2(26–219), Q99619 and hSPSB4(28–233), Q96A44] were cloned into pNIC28-Bsa4 by ligation-independent cloning. Constructs were transformed into BL21(DE3)-R3-pRARE2 and expressed overnight at 18 °C with 0.5 mM IPTG added at OD600 = 0.5–0.8. hSPSB proteins were purified using Ni-Sepharose (GE Healthcare, UK), eluted by imidazole and subsequently cleaved from the N-terminal hexahistidine tag by addition of tobacco etch virus protease (although hSPSB2 was resistant to cleavage). Further purification was achieved by size-exclusion chromatography and finally anion-exchange chromatography in the case of hSPSB1.
ITC measurements on mSPSB proteins were performed at 22 °C using a MicroCalorimetry System (MicroCal, Northhampton, MA). mSPSB1, mSPSB2, and mSPSB4 were prepared by dialyzing against 20 mM Tris, 150 mM sodium chloride, and 2.5 mM calcium chloride at pH 8.0. […] Dilution enthalpies were determined separately by titrating peptide into buffer and used to correct the enthalpies of the binding of protein and peptide. Data were analyzed using a single binding site model implemented in the Origin software package provided with the instrument.

The test system of a further assay is hSPSB1-elonginBC. Details: method as in PMID 17189197. As to conditions: previous study; cited from earlier work.
Assay [1] has as its target T2, mSPSB2(12–224) (murine, UniProt O88838 12-224).
T2 construct: murine SPSB2 (SSB-2), residues 12-224: lacks the first 11 residues and the C-terminal SOCS box; Uniformly 15N-labelled in one NMR experiment; also called mSPSB2ΔSB; 15N-mSPSB2(12–224); source: E. coli Origami B(DE3) pLysS, GST fusion, purified (glutathione-Sepharose, thrombin cleavage, gel filtration)
T2 sequence (looked up): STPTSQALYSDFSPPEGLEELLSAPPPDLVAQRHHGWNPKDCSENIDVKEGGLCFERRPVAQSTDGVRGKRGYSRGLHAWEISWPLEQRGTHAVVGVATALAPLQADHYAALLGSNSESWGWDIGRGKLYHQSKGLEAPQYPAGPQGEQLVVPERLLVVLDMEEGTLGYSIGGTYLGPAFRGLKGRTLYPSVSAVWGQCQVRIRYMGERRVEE
The experiment in a line: ITC; 100 μM peptide titrated into 10 μM mSPSB protein; 22 °C; 20 mM Tris, 150 mM sodium chloride, 2.5 mM calcium chloride, pH 8.0; single binding site model. The conditions noted are these: both partners purified. (In general: In ITC the heat of successive injections is recorded.)

Another assay has as its target mSPSB4ΔSB (murine). The assay is described as above.
In the next assay the target is mSPSB1ΔSB (murine). The assay is described as above.
The target of assay [2] is T2, mSPSB2(12–224). The assay is described as above. The conditions noted are these: both partners purified. This is another data set of the same source.
The target in another assay is T3, Par-4 (Homo sapiens, UniProt Q96IZ0).
T3 chain: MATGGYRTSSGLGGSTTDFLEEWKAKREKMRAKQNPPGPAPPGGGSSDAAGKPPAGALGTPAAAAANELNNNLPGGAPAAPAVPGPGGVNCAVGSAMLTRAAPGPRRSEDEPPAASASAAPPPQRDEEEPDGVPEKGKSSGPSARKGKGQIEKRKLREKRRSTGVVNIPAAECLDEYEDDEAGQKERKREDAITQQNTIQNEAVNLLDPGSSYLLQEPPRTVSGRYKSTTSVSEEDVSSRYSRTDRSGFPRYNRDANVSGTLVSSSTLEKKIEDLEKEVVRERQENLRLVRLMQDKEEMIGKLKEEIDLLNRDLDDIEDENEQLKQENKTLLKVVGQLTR
The assay can be described thus: ITC.

`CC[C@H](C)[C@H](NC(=O)[C@H](Cc1ccc(O)cc1)NC(=O)[C@H](Cc1ccccc1)NC(=O)[C@H](CCC(=O)O)NC(=O)[C@H](CCCNC(=N)N)NC(=O)[C@H](CCCCN)NC(=O)[C@H](CCCNC(=N)N)NC(=O)[C@H](CCC(=O)O)NC(=O)[C@@H](NC(=O)[C@H](CC(=O)O)NC(=O)[C@H](CCC(=O)O)NC(=O)[C@@H](NC(=O)[C@@H](NC(=O)[C@H](CC(N)=O)NC(=O)[C@H](CC(N)=O)NC(=O)[C@H](CC(N)=O)NC(=O)[C@H](CC(N)=O)NC(=O)[C@H](CC(N)=O)NC(=O)[C@@H](NC(=O)[C@@H](N)CC(=O)O)[C@@H](C)CC)[C@@H](C)CC)C(C)C)C(C)C)C(=O)O` [VASA] had a Kd on hSPSB1 of 40 ± 5 nM. As to “[N72A]hPar-4(67–81): N72A mutant peptide of hPar-4(67–81) from a previous study (ref 10) (NELNNALPGGAPAAP; UniProt Q96IZ0 67-81, looked up, variant N72A)”, in the assay with hSPSB1-elonginBC, the “binding to hSPSB1-elonginBC (in words)” value is given as “poor binding”.

B1: hPar-4(64–77) (peptide)
peptide: AAANELNNNLPGGA
notes: human prostate apoptosis response protein-4 (hPar-4), residues 64-77; also called shorter wild-type hPar-4 peptide; source: synthetic peptide (GenScript Corporation)
Regarding B1, the Kd was determined as 3100 nM in the assay with mSPSB2(12–224) [1], 213 nM with mSPSB4ΔSB (murine), 210 nM with mSPSB1ΔSB (murine) and 3200 nM with mSPSB2(12–224) [2].

B2: SPSB2 (protein)
chain: MGQTALAGGSSSTPTPQALYPDLSCPEGLEELLSAPPPDLGAQRRHGWNPKDCSENIEVKEGGLYFERRPVAQSTDGARGKRGYSRGLHAWEISWPLEQRGTHAVVGVATALAPLQTDHYAALLGSNSESWGWDIGRGKLYHQSKGPGAPQYPAGTQGEQLEVPERLLVVLDMEEGTLGYAIGGTYLGPAFRGLKGRTLYPAVSAVWGQCQVRIRYLGERRAEPHSLLHLSRLCVRHNLGDTRLGQVSALPLPPAMKRYLLYQ
Turning to B2, the Kd in the assay with Par-4 is 1500 nM.
